Measurements from patent publication US20250341517A1 (published 2025).
Ends that are not written are not given here. FAM = carboxyfluorescein (FAM) fluorescent label

Columns and labels:
[1] = biological target: T1, anti-Inf-B binding antibody; test: dissociation of labelled peptide from anti-Inf-B antibody on treatment with Inf-B; fluorescence
T1 construct: also called anti-Inf-B antibody

Anti-HRP antibody(r) [2] = biological target: T2, Anti-HRP antibody(r); test: labelled peptide on immobilised rabbit anti-HRP antibody, papain cleavage
T2 construct: Rabbit IgG, immobilised on a microplate; also called rabbit anti-HRP antibodies; anti-HRP antibody from a rabbit

Anti-HBsAg antibody(g) = biological target: T3, Anti-HBsAg antibody(g); test: labelled peptide on antibody immobilised on microplate; antigen HBsAg
T3 construct: also called anti-HBsAg antibodies from goats; goat IgG (HBsAg)

Anti-HRP antibody(r) [3] = biological target: T2, Anti-HRP antibody(r); test: labelled peptide on antibody immobilised on microplate; antigen HRP
Anti-CRP antibody(r) = biological target: T4, Anti-CRP antibody(r); test: labelled peptide on antibody immobilised on microplate; antigen CRP
T4 construct: also called rabbit IgG (CRP)

Anti-hCG antibody(m) = biological target: T5, Anti-hCG antibody(m); test: labelled peptide on antibody immobilised on microplate; antigen hCG
T5 construct: also called mouse IgG (hCG)

protein-A = protein-A (UniProt P38507 37-477); test: labelled peptide on protein immobilised on microplate; fluorescence at bottom
C-reactive protein = biological target: T6, C-reactive protein (UniProt P02741 19-224); test: as above
T6 construct: also called CRP
T6 sequence (looked up): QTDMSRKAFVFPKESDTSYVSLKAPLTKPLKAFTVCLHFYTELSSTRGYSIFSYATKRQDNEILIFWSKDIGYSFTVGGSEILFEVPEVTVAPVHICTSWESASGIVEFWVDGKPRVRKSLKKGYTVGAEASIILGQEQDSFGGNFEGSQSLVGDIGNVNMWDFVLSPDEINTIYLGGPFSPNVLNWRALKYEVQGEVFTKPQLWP

BSA = biological target: T7, BSA (UniProt P02769 25-607); test: as above
T7 construct: also called bovine serum albumin

Anti-HRP antibody(r) [4] = biological target: T2, Anti-HRP antibody(r); test: fluorescence in solution against HRP concentration (0.3 to 100 µM); peptide on immobilised rabbit anti-HRP antibody
From the text: In this experiment, an anti-HRP antibody from a rabbit immobilized on a microplate was used as the binding antibody and HRP was used as the antigen.

[5] = biological target: T8, anti-Inf-A binding antibody; test: dissociation of labelled peptide from anti-Inf-A antibody on treatment with Inf-A; fluorescence
T8 construct: also called anti-Inf-A antibody; anti-inf A antibody

L2 peptide = biological target: T9, L2 peptide; test: FRET on microplate: FAM-L2 immobilised, TAMRA-H1 incubated
T9 construct: Synthetic 14-mer homologous to the FR3 or FR4 region of the light chain; also called L2 switching peptide; second peptide compound L2
T9 peptide: {FAM}-VYYCFQGSHVPFTK

T7 sequence (P02769 25-607 limits assumed): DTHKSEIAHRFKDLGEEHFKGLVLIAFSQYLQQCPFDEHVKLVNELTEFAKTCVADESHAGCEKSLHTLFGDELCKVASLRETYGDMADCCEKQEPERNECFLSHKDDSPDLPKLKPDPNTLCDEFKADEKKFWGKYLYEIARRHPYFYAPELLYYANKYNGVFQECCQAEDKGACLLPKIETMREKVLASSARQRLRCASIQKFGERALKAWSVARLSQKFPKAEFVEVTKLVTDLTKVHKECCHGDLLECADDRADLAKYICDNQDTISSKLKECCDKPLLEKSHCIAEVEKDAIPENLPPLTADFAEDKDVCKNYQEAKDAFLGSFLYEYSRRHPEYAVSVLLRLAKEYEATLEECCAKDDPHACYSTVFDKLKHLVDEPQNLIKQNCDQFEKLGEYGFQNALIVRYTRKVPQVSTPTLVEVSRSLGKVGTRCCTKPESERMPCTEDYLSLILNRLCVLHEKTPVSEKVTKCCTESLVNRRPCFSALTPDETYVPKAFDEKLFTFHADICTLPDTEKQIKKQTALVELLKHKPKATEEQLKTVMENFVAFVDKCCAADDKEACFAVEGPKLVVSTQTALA

B1: H1 peptide (peptide)
peptide: SYWIHWVKQRPGQGLEWIGE
modifications: not fully specified (N-terminus)
notes: Synthetic 20-mer homologous to the FR2 region of the heavy chain; The fluorescent label differs between experiments; also called H1 switching peptide; third peptide compound H1
relative change in fluorescence signal [1]: 145% | decrease of fluorescence intensity at the bottom of the microplate after papain treatment (Anti-HRP antibody(r) [2]): 84.3% | increase of fluorescence intensity in the solution after papain treatment (Anti-HRP antibody(r) [2]): 2180% | change (%) of fluorescence at bottom (B) of microplate (Anti-HBsAg antibody(g)): -58.9% | change (%) of fluorescence in solution (S) (Anti-HBsAg antibody(g)): 410% | fluorescence intensity at bottom (B) of microplate after antigen binding (Anti-HBsAg antibody(g)): 4620 | fluorescence intensity at bottom (B) of microplate before antigen binding (Anti-HBsAg antibody(g)): 11200 | fluorescence intensity in solution (S) after antigen binding (Anti-HBsAg antibody(g)): 11500 | fluorescence intensity in solution (S) before antigen binding (Anti-HBsAg antibody(g)): 2240 | change (%) of fluorescence at bottom (B) of microplate (Anti-HRP antibody(r) [3]): -87.7% | change (%) of fluorescence in solution (S) (Anti-HRP antibody(r) [3]): 746% | fluorescence intensity at bottom (B) of microplate after antigen binding (Anti-HRP antibody(r) [3]): 1450 | fluorescence intensity at bottom (B) of microplate before antigen binding (Anti-HRP antibody(r) [3]): 11800 | fluorescence intensity in solution (S) after antigen binding (Anti-HRP antibody(r) [3]): 22000 | fluorescence intensity in solution (S) before antigen binding (Anti-HRP antibody(r) [3]): 2600 | change (%) of fluorescence at bottom (B) of microplate (Anti-CRP antibody(r)): -26.8% | change (%) of fluorescence in solution (S) (Anti-CRP antibody(r)): 152% | fluorescence intensity at bottom (B) of microplate after antigen binding (Anti-CRP antibody(r)): 3600 | fluorescence intensity at bottom (B) of microplate before antigen binding (Anti-CRP antibody(r)): 4910 | fluorescence intensity in solution (S) after antigen binding (Anti-CRP antibody(r)): 5660 | fluorescence intensity in solution (S) before antigen binding (Anti-CRP antibody(r)): 2240 | change (%) of fluorescence at bottom (B) of microplate (Anti-hCG antibody(m)): -65.6% | change (%) of fluorescence in solution (S) (Anti-hCG antibody(m)): 206% | fluorescence intensity at bottom (B) of microplate after antigen binding (Anti-hCG antibody(m)): 1940 | fluorescence intensity at bottom (B) of microplate before antigen binding (Anti-hCG antibody(m)): 5650 | fluorescence intensity in solution (S) after antigen binding (Anti-hCG antibody(m)): 3920 | fluorescence intensity in solution (S) before antigen binding (Anti-hCG antibody(m)): 1280 | binding result (protein-A): no binding | binding result (C-reactive protein): no binding | binding result (BSA): no binding | Kd (Anti-HRP antibody(r) [4]): 1650 nM | relative change in fluorescence signal [5]: 130% | binding result (L2 peptide): binds
